Assay results reported in patent US8541373B2, “BChE albumin fusions for the treatment of cocaine abuse” (priority 2009, dated 2013).
Values joined by “and” are separate entries in the source; they are usually repeats but may differ in a detail not shown here. Equal values may be shown once.

Experiment: AlbuBChE serum pharmacokinetics after single IM dose (ELISA)
Settings: for tmax: group value
Method: The study included a total of 11 naïve, adult male cynomolgus monkeys divided into four dose groups: • a control group of two cynomologus monkeys that only received a single IV dose of cocaine; • three dose groups that were treated with a single IM dose of AlbuBChE at 0.2, 1 or 5 mg/kg. Three naïve, adult male cynomolgus monkeys were used in each dose group. Following AlbuBChE treatment, a 1 mg/kg IV dose of cocaine was administered at 2, 48, 96, 120, and 240 hours after AlbuBChE dose administration.
A single intramuscular (IM) administration of AlbuBChE was administered on study day 1 and blood was collected at the time points outlined in Table 2. Approximately 0.5 mL of whole blood was collected from the femoral vein into serum separate tubes (SST).
Blocking is done with 2% Casein in 1×PBS, 200 μL/well, 2 hours at room temperature. After washing, 100 μL of diluted serum samples are added to the plates along with standards. Standards are generated through 3.64 fold, serial dilution of AlbuBChE from 2000 to 3.1 ng/mL. Serum samples and standards are maintained at 10% serum by dilution with buffer containing pooled cynomolgus monkey serum. A wash step precedes detection with 100 μL of anti-HSA mAb-6502-HRP at 0.04 μg/mL for 1 hour. Wells are washed again, prior to developing with 100 μl of TMB substrate. After 15 minutes, the reaction is terminated with 100 μL/well of 1N H2SO4 and read on SpectraMax plate reader at 450/570 nm. Values for unknown serum samples are calculated by interpolation of standard curve generated by 4-parameter fit of AlbuBChE standards. The limit of quantitation in cynomolgus serum was 21.1 ng/mL.
AlbuBChE pharmacokinetic parameter values were determined using serum concentration-time profiles for individual animals. The computer software WinNonlin Professional (Version 4.0.1 Pharsight Corporation, USA) was used. Specifically the model for non-compartmental analysis with extravascular input was applied. If there were fewer than 3 data points in the terminal phase of the serum concentration curve, a terminal phase half-life and PK parameters derived from the half-life were not calculated for that profile. Parameters analyzed include tmax, Cmax, t1/2, AUC(0-t) and AUC(0-∞) were calculated.

Question: For AlbuBChE, which “AlbuBChE serum concentration, individual animals” value (1.0 mg/kg IM, 24 hr post dose) is on record?
Answer: Its value is 630.1 ng/mL and 673.8 ng/mL and 572.1 ng/mL.

Question: And the “Mean AlbuBChE serum concentration” value (1.0 mg/kg IM, 24 hr post dose)?
Answer: Its value is 625 ng/mL.

Question: What about the “AlbuBChE serum concentration, individual animals” value (1.0 mg/kg IM, 36 hr post dose) of the same substance?
Answer: The value was 373.4 ng/mL and 471.7 ng/mL and 348.2 ng/mL.

Question: And the “Mean AlbuBChE serum concentration” value (1.0 mg/kg IM, 36 hr post dose)?
Answer: The value was 398 ng/mL.

Question: What about the “AlbuBChE serum concentration, individual animals” value (1.0 mg/kg IM, 48 hr post dose) of the same substance?
Answer: Its value is 289.4 ng/mL and 362.7 ng/mL and 264.4 ng/mL.

Question: What about the “Mean AlbuBChE serum concentration” value (1.0 mg/kg IM, 48 hr post dose) of the same substance?
Answer: Its value is 306 ng/mL.

Question: And the “AlbuBChE serum concentration, individual animals” value (1.0 mg/kg IM, 72 hr post dose)?
Answer: The value was 122.1 ng/mL and 235.0 ng/mL and 133.0 ng/mL.

Question: What about the “Mean AlbuBChE serum concentration” value (1.0 mg/kg IM, 72 hr post dose) of the same substance?
Answer: The value was 163 ng/mL.

Question: What about the “AlbuBChE serum concentration, individual animals” value (1.0 mg/kg IM, 96 hr post dose) of the same substance?
Answer: The value was 87.0 ng/mL and 131.7 ng/mL and 75.3 ng/mL.

Question: And the “Mean AlbuBChE serum concentration” value (1.0 mg/kg IM, 96 hr post dose)?
Answer: The value was 98.0 ng/mL.

Question: What about the “AlbuBChE serum concentration, individual animals” value (1.0 mg/kg IM, 128 hr post dose) of the same substance?
Answer: Its value is 36.2 ng/mL and 72.0 ng/mL and 38.1 ng/mL.

Question: And the “Mean AlbuBChE serum concentration” value (1.0 mg/kg IM, 128 hr post dose)?
Answer: The value was 48.8 ng/mL.

Question: And the “AlbuBChE serum concentration, individual animals” value (1.0 mg/kg IM, 144 hr post dose)?
Answer: The value was 27.4 ng/mL and 47.7 ng/mL and 31.5 ng/mL.

Question: And the “Mean AlbuBChE serum concentration” value (1.0 mg/kg IM, 144 hr post dose)?
Answer: Its value is 35.5 ng/mL.

Question: What about the “AlbuBChE serum concentration, individual animals” value (1.0 mg/kg IM, 168 hr post dose) of the same substance?
Answer: The value was “<LLOQ (2×) and 39.5 ng/mL”.

Question: And the “Mean AlbuBChE serum concentration” value (1.0 mg/kg IM, 168 hr post dose)?
Answer: Its value is “<LLOQ”.

Question: What about the “AlbuBChE serum concentration, individual animals” value (1.0 mg/kg IM, 216 hr post dose) of the same substance?
Answer: Its value is “<LLOQ”.

Question: And the “Mean AlbuBChE serum concentration” value (1.0 mg/kg IM, 216 hr post dose)?
Answer: The value was “<LLOQ”.

Question: And the “AlbuBChE serum concentration, individual animals” value (1.0 mg/kg IM, 264 hr post dose)?
Answer: Its value is “<LLOQ”.

Question: What about the “Mean AlbuBChE serum concentration” value (1.0 mg/kg IM, 264 hr post dose) of the same substance?
Answer: The value was “<LLOQ”.

Question: What about the tmax (1.0 mg/kg IM) of the same substance?
Answer: Its tmax is 3 h.

Question: And the “AUC % Extrap, individual animals” value (5 mg/kg IM)?
Answer: Its value is 1.86% and 0.938% and 1.85%.

Question: What about the “AUC(0-t), individual animals” value (5 mg/kg IM) of the same substance?
Answer: Its value is 201.754 µg·h/mL and 437.848 µg·h/mL and 235.983 µg·h/mL.

Question: What about the “AUC(0-∞), individual animals” value (5 mg/kg IM) of the same substance?
Answer: The value was 205.584 µg·h/mL and 441.992 µg·h/mL and 240.442 µg·h/mL.

Question: What about the “Cmax, individual animals” value (5 mg/kg IM) of the same substance?
Answer: The value was 6016 ng/mL and 17687 ng/mL and 6530 ng/mL.

Question: What about the “Tmax, individual animals” value (5 mg/kg IM) of the same substance?
Answer: Its value is 6 h.

Question: And the “t½, individual animals” value (5 mg/kg IM)?
Answer: The value was 63.4 h and 56.4 h and 65.5 h.

Question: And the “Dose Normalized AUC(0-∞)” value (5.0 mg/kg IM)?
Answer: The value was 59201.

Question: What about the “Dose Normalized Cmax” value (5.0 mg/kg IM) of the same substance?
Answer: Its value is 2016.

Question: And the “Mean AUC % Extrap” value (5.0 mg/kg IM)?
Answer: Its value is 1.55%.

Question: And the “Mean AUC(0-t)” value (5.0 mg/kg IM)?
Answer: Its value is 291.862 µg·h/mL.

Question: And the “Mean AUC(0-∞)” value (5.0 mg/kg IM)?
Answer: The value was 296.006 µg·h/mL.

Question: What about the “Mean Cmax” value (5.0 mg/kg IM) of the same substance?
Answer: The value was 10078 ng/mL.

Question: What about the “Mean t½” value (5.0 mg/kg IM) of the same substance?
Answer: Its value is 62 h and 61.8 h.

Question: And the “AlbuBChE serum concentration, individual animals” value (5.0 mg/kg IM, 1 hr post dose)?
Answer: Its value is 2580.0 ng/mL and 6570.9 ng/mL and 3821.0 ng/mL.

Question: What about the “Mean AlbuBChE serum concentration” value (5.0 mg/kg IM, 1 hr post dose) of the same substance?
Answer: Its value is 4324 ng/mL.

Question: And the “AlbuBChE serum concentration, individual animals” value (5.0 mg/kg IM, 3 hr post dose)?
Answer: The value was 4899.0 ng/mL and 12683.9 ng/mL and 6024.0 ng/mL.

Question: What about the “Mean AlbuBChE serum concentration” value (5.0 mg/kg IM, 3 hr post dose) of the same substance?
Answer: Its value is 7869 ng/mL.

Question: And the “AlbuBChE serum concentration, individual animals” value (5.0 mg/kg IM, 6 hr post dose)?
Answer: The value was 6016.0 ng/mL and 17686.8 ng/mL and 6530.3 ng/mL.

Question: What about the “Mean AlbuBChE serum concentration” value (5.0 mg/kg IM, 6 hr post dose) of the same substance?
Answer: The value was 10078 ng/mL.

Question: What about the “AlbuBChE serum concentration, individual animals” value (5.0 mg/kg IM, 12 hr post dose) of the same substance?
Answer: Its value is 4178.0 ng/mL and 11105.8 ng/mL and 5091.0 ng/mL.

Question: What about the “Mean AlbuBChE serum concentration” value (5.0 mg/kg IM, 12 hr post dose) of the same substance?
Answer: Its value is 6792 ng/mL.

Question: What about the “AlbuBChE serum concentration, individual animals” value (5.0 mg/kg IM, 24 hr post dose) of the same substance?
Answer: The value was 2836.0 ng/mL and 5034.0 ng/mL and 3325.0 ng/mL.

Question: And the “Mean AlbuBChE serum concentration” value (5.0 mg/kg IM, 24 hr post dose)?
Answer: Its value is 3732 ng/mL.

Question: What about the “AlbuBChE serum concentration, individual animals” value (5.0 mg/kg IM, 36 hr post dose) of the same substance?
Answer: Its value is 1572.0 ng/mL and 2929.0 ng/mL and 1901.0 ng/mL.

Question: What about the “Mean AlbuBChE serum concentration” value (5.0 mg/kg IM, 36 hr post dose) of the same substance?
Answer: Its value is 2134 ng/mL.

Question: And the “AlbuBChE serum concentration, individual animals” value (5.0 mg/kg IM, 48 hr post dose)?
Answer: The value was 1329.7 ng/mL and 2644.4 ng/mL and 1604.9 ng/mL.

Question: What about the “Mean AlbuBChE serum concentration” value (5.0 mg/kg IM, 48 hr post dose) of the same substance?
Answer: Its value is 1860 ng/mL.

Question: And the “AlbuBChE serum concentration, individual animals” value (5.0 mg/kg IM, 72 hr post dose)?
Answer: The value was 637.7 ng/mL and 1190.8 ng/mL and 723.6 ng/mL.

Question: And the “Mean AlbuBChE serum concentration” value (5.0 mg/kg IM, 72 hr post dose)?
Answer: Its value is 851 ng/mL.

Question: And the “AlbuBChE serum concentration, individual animals” value (5.0 mg/kg IM, 96 hr post dose)?
Answer: Its value is 415.1 ng/mL and 732.6 ng/mL and 454.7 ng/mL.

Question: What about the “Mean AlbuBChE serum concentration” value (5.0 mg/kg IM, 96 hr post dose) of the same substance?
Answer: The value was 534.1 ng/mL and 534 ng/mL.

Question: What about the “AlbuBChE serum concentration, individual animals” value (5.0 mg/kg IM, 128 hr post dose) of the same substance?
Answer: The value was 217.2 ng/mL and 325.9 ng/mL and 224.3 ng/mL.

Question: And the “Mean AlbuBChE serum concentration” value (5.0 mg/kg IM, 128 hr post dose)?
Answer: The value was 255.8 ng/mL and 256 ng/mL.

Question: And the “AlbuBChE serum concentration, individual animals” value (5.0 mg/kg IM, 144 hr post dose)?
Answer: Its value is 158.4 ng/mL and 254.7 ng/mL and 163.3 ng/mL.

Question: And the “Mean AlbuBChE serum concentration” value (5.0 mg/kg IM, 144 hr post dose)?
Answer: Its value is 192.1 ng/mL and 192 ng/mL.

Question: And the “AlbuBChE serum concentration, individual animals” value (5.0 mg/kg IM, 168 hr post dose)?
Answer: The value was 118.9 ng/mL and 165.5 ng/mL and 130.4 ng/mL.

Question: And the “Mean AlbuBChE serum concentration” value (5.0 mg/kg IM, 168 hr post dose)?
Answer: Its value is 138.3 ng/mL and 138 ng/mL.

Question: And the “AlbuBChE serum concentration, individual animals” value (5.0 mg/kg IM, 216 hr post dose)?
Answer: Its value is 73.7 ng/mL and 91.6 ng/mL and 79.4 ng/mL.

Question: And the “Mean AlbuBChE serum concentration” value (5.0 mg/kg IM, 216 hr post dose)?
Answer: Its value is 81.6 ng/mL.

Question: What about the “AlbuBChE serum concentration, individual animals” value (5.0 mg/kg IM, 264 hr post dose) of the same substance?
Answer: The value was 41.9 ng/mL and 50.9 ng/mL and 47.2 ng/mL.

Question: And the “Mean AlbuBChE serum concentration” value (5.0 mg/kg IM, 264 hr post dose)?
Answer: Its value is 46.7 ng/mL.

Question: What about the tmax (5.0 mg/kg IM) of the same substance?
Answer: Its tmax is 6 h.
